Measured values as given in the supplement of paper PMC12764529.
± gives the half width of the 95% confidence interval.

Columns and labels:
[1] = folding stability dG unfold from trypsin proteolysis; higher = more stable
How it was run: (§1)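 Digests were run with trypsin and chymotrypsin at 11 concentrations in threefold dilutions, plus a no-protease condition, on designed mini-proteins in a PA-tagged cDNA display construct. The mini-proteins were under 80 residues, had no cysteine, and were kept only when AlphaFold2 dimer inter-PAE was above 15. After sequencing, Bayesian fitting of the counts gave K50, from which unfolding free energy was derived against a sequence-predicted unfolded-state K50 and a shared folded-state K50, per protease or combined.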

[2] = folding stability dG unfold (combined trypsin and chymotrypsin); higher = more stable
How it was run: as §1

[3] = folding stability dG unfold from chymotrypsin proteolysis; higher = more stable
How it was run: as §1

SPGMEPIREWELKLPDPDGEDKDLEVEMYRMPEGNYYVDISIPNGKKIPFPMPPDEPITPDDIRNFIKKFSA [r9_616_TrROS]
folding stability dG unfold [1]: 0.133 ± 0.26 kcal/mol
folding stability dG unfold [2]: 0.394 ± 0.28 kcal/mol
folding stability dG unfold [3]: 0.613 ± 0.23 kcal/mol

SPGVTVEISTSTLPNGTRVTTLTTTTFDPQTGTTSTTTTVTVSPAPSSASPLRRELVTRPDGTLVPAALLSA [r9_898_JUSTAS]
folding stability dG unfold [1]: -0.234 ± 0.13 kcal/mol
folding stability dG unfold [2]: 0.168 ± 0.076 kcal/mol
folding stability dG unfold [3]: 0.235 ± 0.16 kcal/mol

SPGWYKVDIEIPMKEIQEEFGDPDKPITADRIKERVKKIAETIGFEVRDVEIEMDPNGWVRVTVTIPVKNSA [r9_52_TrROS]
folding stability dG unfold [1]: 3.77 ± 0.3 kcal/mol
folding stability dG unfold [2]: 3.64 ± 0.19 kcal/mol
folding stability dG unfold [3]: 3.89 ± 0.11 kcal/mol

SPIKLPIVFPNLPKEEAKEAVEALAKELEEKYGFKIEVEVEELRAPDGKLVAVVAIATIEKFGEEDKLLFSA [r9_21_TrMRF]
folding stability dG unfold [1]: 1.3 ± 0.08 kcal/mol
folding stability dG unfold [2]: 1.2 ± 0.18 kcal/mol
folding stability dG unfold [3]: 1.12 ± 0.14 kcal/mol

SPIRIRIWNPKNNVPIDEIDIQPNEDGNYGIKIKFWMPGKQHEHTIPIPPGETADEFINDHGIRSIEIEPSA [r9_492_TrROS]
folding stability dG unfold [1]: 0.13 ± 0.085 kcal/mol
folding stability dG unfold [2]: 0.7 ± 0.086 kcal/mol
folding stability dG unfold [3]: 1.01 ± 0.11 kcal/mol

SPKELEFKHPDNGMEVKIRLDPNQGRIEIEVRPPNGPPVKMDMEVTDDRIKIDIYYPGGRPMMQLEFPLPSA [r9_665_TrROS]
folding stability dG unfold [1]: 2.92 ± 0.15 kcal/mol
folding stability dG unfold [2]: 2.88 ± 0.085 kcal/mol
folding stability dG unfold [3]: 2.79 ± 0.074 kcal/mol

SPKIKIVSVSRTAGGALVALLELEDRPITLYRPLALPYILASAEIPGTNEVKTILAPSSISPEEIAKLLGSA [r9_522_TrMRF]
folding stability dG unfold [1]: 1.59 ± 0.037 kcal/mol
folding stability dG unfold [2]: 1.75 ± 0.089 kcal/mol
folding stability dG unfold [3]: 1.75 ± 0.09 kcal/mol

SPKVTLTLEGKVITFPAPLAEKLLGELQRKGYKVKILSVEPDPETDEIYLVMEVEPLKPPPLPPPNPLLESA [r9_448_TrMRF]
folding stability dG unfold [1]: 1.16 ± 0.14 kcal/mol
folding stability dG unfold [2]: 2.05 ± 0.35 kcal/mol
folding stability dG unfold [3]: 2.28 ± 0.062 kcal/mol

SPLTAEQIKKLLRELFPNAKIVSIEYDKENKTVTITFEDGLKIEVTVTEDGRVIIRITLPGKEITIEIEVSA [r9_304_TrROS_Hall]
folding stability dG unfold [1]: 4.22 ± 0.3 kcal/mol
folding stability dG unfold [2]: 4.44 ± 0.22 kcal/mol
folding stability dG unfold [3]: 4.03 ± 0.23 kcal/mol

SPLVLNPEGRTLTITLTVTVDPDVDRQVVPVLVVDEGAPRTFTFEVPKGLAGPVTFTLEIDLPPGAYVEVSA [r9_973_TrMRF]
folding stability dG unfold [1]: 2.05 ± 0.028 kcal/mol
folding stability dG unfold [2]: 2.18 ± 0.049 kcal/mol
folding stability dG unfold [3]: 2.29 ± 0.066 kcal/mol

SPNLKPVEFPIKIPGYKIRRVSIWKSPDGPVEIFVRFPDGWYYEFEIPPNGDIQPMKITEAVPPDEDKKNSA [r9_1075_TrROS]
folding stability dG unfold [1]: 1.57 ± 0.086 kcal/mol
folding stability dG unfold [2]: 1.38 ± 0.16 kcal/mol
folding stability dG unfold [3]: 1.14 ± 0.17 kcal/mol

SPNMQPVEMEFKIKVPGKPVDIKIEMWRMPDGQTRMDIRYPDGRSIMFNPSNGSIKIYDPKDGKPLAEISSA [r9_970_TrROS]
folding stability dG unfold [1]: 1.1 ± 0.057 kcal/mol
folding stability dG unfold [2]: 1.38 ± 0.16 kcal/mol
folding stability dG unfold [3]: 1.47 ± 0.073 kcal/mol

SPPVRARIRVERLPDGSVRVELEVEFPDGVRVRIETLEAPPETGVVRVRARFFPPDGSSVEFEFTFPLLRSA [r9_1179_TrMRF]
folding stability dG unfold [1]: 3.74 ± 0.086 kcal/mol
folding stability dG unfold [2]: 4.52 ± 0.11 kcal/mol
folding stability dG unfold [3]: 4.96 ± 0.12 kcal/mol

SPQNLVRIAEIKVELKLDGKKYIITIEVYRPPDSDEVIVRVKVIDPSSDKSSPELEKIAKELEKKIEEELKS [r1_229_JUSTAS]
folding stability dG unfold [1]: 2.53 ± 0.19 kcal/mol
folding stability dG unfold [2]: 3.54 ± 0.18 kcal/mol
folding stability dG unfold [3]: 4.09 ± 0.1 kcal/mol

SPRIKIDIPFFNANGHPQEVEIEYSPTDGMLMIKFPRNGYYIMIQIKRIEWEDGKLEIELDIFIMPPGDFSA [r9_587_TrROS]
folding stability dG unfold [1]: 3.01 ± 0.18 kcal/mol
folding stability dG unfold [2]: 4.17 ± 0.43 kcal/mol
folding stability dG unfold [3]: 4.55 ± 0.22 kcal/mol

SPSTTIPQTITLDTKLPNGKPATPEEVKAIAEEIVKKLEKEKGVKISINVKVTPVDSSGKYKLDITITIIKS [r1_231_JUSTAS]
folding stability dG unfold [1]: 2.14 ± 0.047 kcal/mol
folding stability dG unfold [2]: 2.59 ± 0.11 kcal/mol
folding stability dG unfold [3]: 2.81 ± 0.072 kcal/mol

SPVEIVSEETDPNGGTKYKTYSNPQADVRIEVAYPSSGITITVHFPDSTSTKSFSSEADAEKEVVRLAASSA [r9_527_JUSTAS]
folding stability dG unfold [1]: 0.339 ± 0.086 kcal/mol
folding stability dG unfold [2]: 0.711 ± 0.11 kcal/mol
folding stability dG unfold [3]: 0.944 ± 0.15 kcal/mol

SPVLEKIRKLVEELLKKLGIEVKEGETVEIEITLPDGSTIRITFDAKTKKITVEITIDGKKVTLTLEIKPSA [r9_426_TrROS_Hall]
folding stability dG unfold [1]: 4.2 ± 0.3 kcal/mol
folding stability dG unfold [2]: > 6 kcal/mol
folding stability dG unfold [3]: 5.68 ± 0.72 kcal/mol

SPVSLSFTTAPSGLPTVTSASQPADGSLLLTLTEPATGATTTLTLPPGLPPGVERTVTLPGPDGATTLTVGS [r1_43_JUSTAS]
folding stability dG unfold [1]: -0.678 ± 0.19 kcal/mol
folding stability dG unfold [2]: 0.364 ± 0.073 kcal/mol
folding stability dG unfold [3]: 0.723 ± 0.11 kcal/mol

SPVVVTTSPGPDGGARVTIYFPKTGKPIEFDITDPDLVEESTSDPNTRVDIPEEVLRSLAPDLFTGFTTESA [r9_390_TrMRF]
folding stability dG unfold [1]: 0.497 ± 0.046 kcal/mol
folding stability dG unfold [2]: 0.362 ± 0.065 kcal/mol
folding stability dG unfold [3]: 0.241 ± 0.1 kcal/mol

SPWYVRIKLEYPGKEKRIMIPPDESISQIKDNIRDFAREMGLEEPPLDDFKIEDVEVFPDENGMVSIEIKSA [r9_1053_TrROS]
folding stability dG unfold [1]: 0.606 ± 0.32 kcal/mol
folding stability dG unfold [2]: 0.819 ± 0.41 kcal/mol
folding stability dG unfold [3]: 1.15 ± 0.21 kcal/mol

SPYTVDSVSEDPSRNSTTVLNFPDGTTVTVTYDPSNPSLATVTVRPADGTTETTTVPLDEPFVVNLTVNPSA [r9_875_JUSTAS]
folding stability dG unfold [1]: 0.922 ± 0.074 kcal/mol
folding stability dG unfold [2]: 1.02 ± 0.21 kcal/mol
folding stability dG unfold [3]: 0.94 ± 0.17 kcal/mol

SQWVIKIKFPNPDGEPVKIIFPVEEIQEIFKEEHGEPSSPQEFADRLAKHHPNVDVEIMPLDDMPPEQLNSA [r9_1085_TrROS]
folding stability dG unfold [1]: -0.998 ± 0.66 kcal/mol
folding stability dG unfold [2]: -0.0736 ± 0.34 kcal/mol
folding stability dG unfold [3]: 0.42 ± 0.21 kcal/mol

SRDLLKELAEKFPNFEPKGVQEEPTDNGGVKLQVIARHPKNGRYYKIEITVPPDGKIEDIEIEPVPLDDLSA [r9_274_TrROS]
folding stability dG unfold [1]: 2.3 ± 0.045 kcal/mol
folding stability dG unfold [2]: 2.61 ± 0.09 kcal/mol
folding stability dG unfold [3]: 2.823 ± 0.021 kcal/mol

SRRLITIEITVTLPGNPEVTLSKTLKLPTEDVEEAIEKAKKEFKEEFGIPEDVPVKIEVTVSTSDGDPSLQS [r1_149_JUSTAS]
folding stability dG unfold [1]: 2.53 ± 0.18 kcal/mol
folding stability dG unfold [2]: 1.96 ± 0.068 kcal/mol
folding stability dG unfold [3]: 1.56 ± 0.049 kcal/mol

SRTIENPDNGIKITVDRVPGGRYRVHIFNPGGKPIHEREIPDMPIPPGDTREIKIPIKGLPPGMYLMLEPWS [r1_263_TrROS]
folding stability dG unfold [1]: 0.502 ± 0.16 kcal/mol
folding stability dG unfold [2]: 0.719 ± 0.13 kcal/mol
folding stability dG unfold [3]: 0.842 ± 0.13 kcal/mol

SSAEEIVEKLKKELEEKLPEDYKITSVTLTKSPDGIVTAPMTIKSSDGVESTVTVTYDLKTGKITIEVNSSA [r9_219_JUSTAS]
folding stability dG unfold [1]: 3.42 ± 0.25 kcal/mol
folding stability dG unfold [2]: 4.73 ± 0.22 kcal/mol
folding stability dG unfold [3]: 4.84 ± 0.12 kcal/mol

SSEELRELILNEAAKLGVKIKEIKVKEDPSTNTVSIEITVPDGKVIKLSFTRTSDGGYSYDINELKAGLESA [r9_85_JUSTAS]
folding stability dG unfold [1]: 5.35 ± 0.35 kcal/mol
folding stability dG unfold [2]: > 6 kcal/mol
folding stability dG unfold [3]: 6.2 ± 0.14 kcal/mol

SSISIPGLTEEKAAELAKRLRELFPGAEVKTTTFPEKKVVVVDVTLPVVDADGKLVGTVKLRLVLVVEDDSA [r9_378_TrMRF]
folding stability dG unfold [1]: 4.6 ± 0.19 kcal/mol
folding stability dG unfold [2]: 4.84 ± 0.34 kcal/mol
folding stability dG unfold [3]: 4.55 ± 0.21 kcal/mol

SSISPSSTLTFSKPFPDDDINAVKEFAEKLAKEIGPDVSVVKIEKDPNNPNKVTITISVPGTSITVNFSNSA [r9_1079_JUSTAS]
folding stability dG unfold [1]: 1.09 ± 0.054 kcal/mol
folding stability dG unfold [2]: 1.01 ± 0.14 kcal/mol
folding stability dG unfold [3]: 0.664 ± 0.26 kcal/mol

SSKIKEFIIKLPEKNKYYKIIVTPTEIYIYDENGKKIKKFSIPKNKKIKKIDIKIDKKKNKLIIKVYLEKSA [r9_939_TrMRF]
folding stability dG unfold [1]: 4.14 ± 0.23 kcal/mol
folding stability dG unfold [2]: 4.42 ± 0.21 kcal/mol
folding stability dG unfold [3]: 4.54 ± 0.098 kcal/mol

SSKTVTVTTEEEEKEAREKIKELVKPGKSVDVEITMTGPDGTRTRRTYKITTNPDGTITIEETETPLPPPSA [r9_1023_JUSTAS]
folding stability dG unfold [1]: 1.5 ± 0.034 kcal/mol
folding stability dG unfold [2]: 2.17 ± 0.21 kcal/mol
folding stability dG unfold [3]: 2.43 ± 0.057 kcal/mol

SSLEIPPEVLAEIKKAALEGDDEKVKELLKELGFTKVEIKYEKLDGKVKLTIKVEHPEGPATITFSDELLSA [r9_783_JUSTAS]
folding stability dG unfold [1]: 3.36 ± 0.18 kcal/mol
folding stability dG unfold [2]: 4.23 ± 0.28 kcal/mol
folding stability dG unfold [3]: 4.15 ± 0.15 kcal/mol

SSPEEDLEEIEITVTNPNDPRPSFVKVTRSPEGYEATFTLPDGKTVKIPPELGLEEIKKLPSSFTITILPSA [r9_781_JUSTAS]
folding stability dG unfold [1]: 0.0376 ± 0.059 kcal/mol
folding stability dG unfold [2]: 0.561 ± 0.064 kcal/mol
folding stability dG unfold [3]: 0.83 ± 0.087 kcal/mol

SSPMTVEELLERHPNLLVVRLPDGTVYLFDPEKETLYTVTPGTGEVTVTPLSLEELLALLPAAGHEVLPLSA [r9_721_JUSTAS]
folding stability dG unfold [1]: 1.74 ± 0.1 kcal/mol
folding stability dG unfold [2]: 1.99 ± 0.11 kcal/mol
folding stability dG unfold [3]: 2.14 ± 0.092 kcal/mol

SSSAEIRAYRFPDFWLVEIDLRDGDKLVGTAVFPNDGSVSLEEVAEAFRAAHPDFDVEISAIEPVPPPPPSA [r9_364_TrMRF]
folding stability dG unfold [1]: 1.71 ± 0.064 kcal/mol
folding stability dG unfold [2]: 2.01 ± 0.12 kcal/mol
folding stability dG unfold [3]: 2.08 ± 0.063 kcal/mol
